Key:
human RANK-L [1] = target: T1, human RANK-L (human, UniProt O14788 140-317, limits assumed); experiment: cell-based or functional assay
T1 sequence (looked up): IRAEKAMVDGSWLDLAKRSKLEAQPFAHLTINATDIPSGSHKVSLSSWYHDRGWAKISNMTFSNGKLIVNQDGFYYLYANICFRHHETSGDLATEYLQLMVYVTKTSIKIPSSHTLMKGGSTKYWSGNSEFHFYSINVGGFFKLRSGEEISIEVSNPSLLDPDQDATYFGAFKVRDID

human RANK-L [2] = target: T1, human RANK-L; experiment: ELISA (ED50), biotin-hRANK-L on neutravidin
Outline: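 Nanobodies at 500 nM to 160 pM in 1% casein/PBS incubated 1 h at room temperature; binding detected via anti-myc then anti-mouse-HRP with TMB, OD 450 nm.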

human RANK-L [3] = target: T1, human RANK-L; experiment: AlphaScreen, biotin-hRANK-L / RANK-huFc beads
human RANK-L [4] = target: T1, human RANK-L; experiment: AlphaScreen, biotin-hRANK-L / RANK-huFc beads; remark: listed apart in the source
human RANK-L [5] = target: T1, human RANK-L; experiment: FMAT, ALEXA647-hRANK-L / RANK on HEK293T cells
Method: HEK293T cells were transiently transfected with the plasmid expressing full length RANK using Fugene6 as described in example 3. After 24 hours aliquots of 60 μl (7.5×10³ cells) were plated into FMAT system 384-well plates (PE Biosystems, CA, US) and allowed to adhere for 24 h. After overnight adherence, culture supernatant was removed by gently tapping the plate. […] The plates were scanned after 10 hours of incubation. Cell surface fluorescence was measured by 8200 Cellular Detection System (Applied Biosystems, Foster City, Calif., US) which is a fluorescence macro-confocal, biological binding event analyzer that enables mix-and-read assays with live cells.

[6] = target: T2, human RANK-L, full length, membrane-bound, expressed on HEK293T cells (human, UniProt O14788 1-317); experiment: FACS, HEK293T with human RANK-L, 16 pM Nanobody
T2 construct: whole, on cells; also called hRANK-L
T2 sequence (looked up): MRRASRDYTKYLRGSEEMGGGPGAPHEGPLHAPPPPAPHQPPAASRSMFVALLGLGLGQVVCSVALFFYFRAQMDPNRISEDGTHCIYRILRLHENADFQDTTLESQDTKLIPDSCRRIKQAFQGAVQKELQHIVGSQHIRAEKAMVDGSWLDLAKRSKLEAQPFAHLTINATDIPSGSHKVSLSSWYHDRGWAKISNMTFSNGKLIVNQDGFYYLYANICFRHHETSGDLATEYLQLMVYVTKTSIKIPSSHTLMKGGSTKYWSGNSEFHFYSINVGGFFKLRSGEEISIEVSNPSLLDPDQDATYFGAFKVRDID
Method: (§1) Human embryonic kidney cells (HEK293T) were grown in Dulbecco's modified Eagles's medium supplemented with 10% fetal bovine serum (FBS), […] L-glutamine, 0.4 mM sodium pyruvate. […] After 48 hours, transfected cells were subjected to FACS analysis. […] Then cells were washed three times with FACS buffer. Bound Nanobodies were detected by subsequent incubations of a primary mouse anti Myc antibody (30 min at 4° C. (2 μg/ml)) and a second incubation with goat anti mouse-Phycoerythrin (PE) (Jackson Laboratories) for another 30 min at 4° C. Finally, after washing, the cells were resuspended in PBS+10% FBS+TO-PRO®-3 (5 nM) (Molecular Probes®, Invitrogen, Merelbeke, Belgium) and cell surface fluorescence expressed as mean PE fluorescence, was measured using flow cytometry.

[7] = target: T2, human RANK-L, full length, …; experiment: FACS, HEK293T with human RANK-L, 80 pM Nanobody
Method: as §1

[8] = target: T2, human RANK-L, full length, …; experiment: FACS, HEK293T with human RANK-L, 3.2 pM Nanobody
Method: as §1

[9] = target: T3, cynomolgus RANK-L, full length, membrane-bound, expressed on HEK293T cells (cynomolgus monkey, UniProt A0A7N9DBU4 1-317); experiment: FACS, HEK293T with cynomolgus RANK-L, 400 pM Nanobody
T3 construct: whole, on cells; also called cyno RANK-L
T3 sequence: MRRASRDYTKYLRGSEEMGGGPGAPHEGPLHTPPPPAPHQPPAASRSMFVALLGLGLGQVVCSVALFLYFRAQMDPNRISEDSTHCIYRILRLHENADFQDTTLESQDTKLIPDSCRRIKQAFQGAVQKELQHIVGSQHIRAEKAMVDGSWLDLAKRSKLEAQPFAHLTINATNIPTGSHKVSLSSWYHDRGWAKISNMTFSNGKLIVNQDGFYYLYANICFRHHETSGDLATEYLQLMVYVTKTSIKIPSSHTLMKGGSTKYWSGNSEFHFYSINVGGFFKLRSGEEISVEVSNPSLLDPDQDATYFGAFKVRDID
Method: as §1

TNFα = target: T4, TNFα (UniProt P01375 77-233); experiment: competition ELISA on RANK-L-coated plates, 1 nM Nanobody preincubated with the ligand
T4 construct: also called TNF-alpha

CD40 ligand = target: T5, CD40 ligand (UniProt P29965 113-261, limits assumed); experiment: as above
T5 sequence (looked up): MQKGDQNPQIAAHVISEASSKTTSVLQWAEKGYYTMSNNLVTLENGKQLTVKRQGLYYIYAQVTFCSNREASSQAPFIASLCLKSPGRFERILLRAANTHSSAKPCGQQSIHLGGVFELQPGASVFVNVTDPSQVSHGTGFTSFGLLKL

TRAIL = target: T6, TRAIL (UniProt P50591 114-281, limits assumed); experiment: as above
T6 construct: also called tumor necrosis factor-related apoptosis inducing ligand
T6 sequence (P50591 114-281 limits assumed): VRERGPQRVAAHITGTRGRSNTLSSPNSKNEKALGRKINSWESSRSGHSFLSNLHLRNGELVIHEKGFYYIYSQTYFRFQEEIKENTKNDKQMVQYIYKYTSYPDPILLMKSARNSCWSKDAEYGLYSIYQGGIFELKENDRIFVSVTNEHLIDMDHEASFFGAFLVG

T4 sequence (P01375 77-233 limits assumed): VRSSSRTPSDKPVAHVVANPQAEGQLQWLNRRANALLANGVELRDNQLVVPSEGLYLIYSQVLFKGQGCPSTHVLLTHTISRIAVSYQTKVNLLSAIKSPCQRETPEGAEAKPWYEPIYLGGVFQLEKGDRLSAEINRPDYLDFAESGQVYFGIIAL

Binder	RANK-L induced NF-kappaB activation (luciferase reporter, HEK293T cells), IC50 (human RANK-L [1]) [nM]	EC50 (human RANK-L [2]) [nM]	IC50 (human RANK-L [3]) [nM]	IC50 (human RANK-L [4]) [nM]	IC50 (human RANK-L [5]) [nM]	PE mean fluorescence [6]	PE mean fluorescence [7]	PE mean fluorescence [8]	PE mean fluorescence [9]	binding result (TNFα)	binding result (CD40 ligand)	binding result (TRAIL)
RANKL13 (VHH, not shown: small tags and cut ends) VHH: EVQLVESGGGLVQAGGSLRLSCAASGRTFRSYPMGWFRQAPGKEREFVASITGSGGSTYYADSVKGRFTISRDNAKNTVYLQMNSLRPEDTAVYSCAAYIRPDTYLSRDYRKYDYWGQGTQVTVSS	6.21	0.226	0.147	0.12	0.429	499	1530	220	4110	no binding (tested: approximately 100 nM)	no binding (tested: approximately 100 nM)	no binding (tested: approximately 100 nM)
RANKL18 (VHH, not shown: small tags and cut ends) VHH: EVQLVESGGGLVQAGGSLRLSCAASGRTFSRSAMGWFRQAPGKEREFVGFITGSGGTTYYGESVKGRFTISRDNAQNPVYLQMNSLKPEDTAVYYCGVYRRTYISSTYSESSEYDYWGQGTQVTVSS	15.2	0.242	0.187	0.253	0.552	218	649	105	3490	no binding (tested: approximately 100 nM)	no binding (tested: approximately 100 nM)	no binding (tested: approximately 100 nM)
